Experimental findings from US11845793B2, “Anti-ROR1 antibodies” (NBE-THERAPEUTICS AG, dated 2023) are described below.

Numbering of substitutions follows the chain as printed.

To fix the notation:
B1: huR12_11, humanized from R12 (antibody, V domains shown)
VH: QVQLVESGGALVQPGGSLTLSCKASGFDFSAYYMSWVRQAPGKGLEWIATIYPSSGKTYYAASVQGRFTISADNAKNTVYLQMNSLTAADTATYFCARDSYADDGALFNIWGQGTLVTVSS
VL: QLVLTQSPSVSAALGSSAKITCTLSSAHKTDTIDWYQQLAGQAPRYLMYVQSDGSYEKRSGVPDRFSGSSSGADRYLIISSVQADDEADYYCGADYIGGYVFGGGTQLTVG
B2: huR12_16, humanized from R12 (antibody, V domains shown)
VH: B1 VH with A10E, Q13T, T50S, S63A
VL: B1 VL
B3: huR12_4, humanized from R12 (antibody, V domains shown)
VH: B1 VH with A10E, Q113K
VL: QLVLTQSPSVSAALGSSAKITCTLSSAHKTDTIDWYQQLAGQAPRYLMYVQSDGSYEKRSGVPDRFSGSASGADRYLAISRVQADDEADYYCGADYIGGYVFGGGTQLTVLG
B4: Chimeric mAb R12 (antibody, V domains shown)
VH: QEQLVESGGRLVTPGGSLTLSCKASGFDFSAYYMSWVRQAPGKGLEWIATIYPSSGKTYYATWVNGRFTISSDNAQNTVDLQMNSLTAADRATYFCARDSYADDGALFNIWGPGTLVTISS
VL: B1 VL with Q1E, S17P, A40Q, Q42E, Y49Q, E57T, S60P, S80P, G111T
B5: huR12_7, humanized from R12 (antibody, V domains shown)
VH: B1 VH with A10E, Y80S, Q113K
VL: B3 VL with A70S, A78I, R81S
B6: rbQ11, humanized from R11 (antibody, V domains shown)
VH: EVQLVQSGGGLVQPGGSLRLSCAASGSDINDYPISWVRQAPGKGLEWVSFINSGGSTWYASWVKGRFTISRDNAKNSLYLQMNSLRDDDTATYFCARGYSTYYGDFNIWGQGTLVTVSS
VL: DIVMTQSPSSLSASVGDRVTITCQASQSIDSNLAWFQQKPGKAPKSLIYRASNLASGVPSKFSGSGSGTDFTLTISSLQREDAATYYCLGGVGNVSYRTSFGGGTKVEIK
B7: rbD4, humanized from R11 (antibody, V domains shown)
VH: EVQLVESGGGLVQPGRSLRLSCTASGSDINDYPISWFRQAPGKGLEWVGFINSGGSTWYASWVKGRFTISRDDSKSIAYLQMNSLKTDDTATYFCARGYSTYYGDFNIWGQGTTVTVSS
VL: B6 VL with I2V, K45N, S46L, K61R, D70E, G103Q
B8: rbQ12, humanized from R11 (antibody, V domains shown)
VH: B6 VH with Q6E, D87A, L114M
VL: B6 VL with D1E, K45N, S46L, K61R, D70E, G103Q
B9: chimeric mAb R11 (antibody, V domains shown)
VH: QSVKESEGDLVTPAGNLTLTCTASGSDINDYPISWVRQAPGKGLEWIGFINSGGSTWYASWVKGRFTISRTSTTVDLKMTSLTTDDTATYFCARGYSTYYGDFNIWGPGTLVTISS
VL: ELVMTQTPSSTSGAVGGTVTINCQASQSIDSNLAWFQQKPGQPPTLLIYRASNLASGVPSRFSGSRSGTEYTLTISGVQREDAATYYCLGGVGNVSYRTSFGGGTEVVVK
B10: chimeric mAb 2A2 (antibody, V domains shown)
VH: QVQLQQSGAELVRPGASVTLSCKASGYTFSDYEMHWVIQTPVHGLEWIGAIDPETGGTAYNQKFKGKAILTADKSSSTAYMELRSLTSEDSAVYYCTGYYDYDSFTYWGQGTLVTVSA
VL: DIVMTQSQKIMSTTVGDRVSITCKASQNVDAAVAWYQQKPGQSPKLLIYSASNRYTGVPDRFTGSGSGTDFTLTISNMQSEDLADYFCQQYDIYPYTFGGGTKLEIK
B11: hu2A2-D23, humanized from 2A2 (antibody, V domains shown)
VH: QVQLVESGAEVKKPGASVKLSCKASGYTFSDYEMHWVRQAPGQRLEWMGAIDPETGGTAYNQKFKGRVTITVDKSASTAYMELSSLRSEDTAVYYCTGYYDYDSFTYWGPGTTVTVSS
VL: DIVMTQSPSTLSASVGDRVTITCKASQNVDAAVAWYQQKPGTAPKLLIYSASNRYTGVPSRFSGSGSGTEFTLTISSLQSEDLADYFCQQYDIYPYTFGQGTKLEIK
B12: hu2A2b-Q11, humanized from 2A2 (antibody, V domains shown)
VH: EVQLVQSGAEVKKPGASVKVSCKASGYTFSDYEMHWVRQAPGQGLEWLGAIDPETGGTAYNQKFKGRVTMTGDTSISTAYMELSRLTSDDTAVYYCTGYYDYDSFTYWGQGTLVSVSS
VL: B11 VL with V3Q, T10S, A13T, T42K, P59A, E70D, L73F
B13: hu2A2-D16, humanized from 2A2 (antibody, V domains shown)
VH: B12 VH with Q6E, L48V, G72R, I76T, A79V, R85S, T87R, D89E, S115T
VL: B11 VL with V3Q, T10S, T42K, V58I, S60T, E70D, L104V

T1 sequence (Q01973 other isoform, or with tags, fused parts or gaps): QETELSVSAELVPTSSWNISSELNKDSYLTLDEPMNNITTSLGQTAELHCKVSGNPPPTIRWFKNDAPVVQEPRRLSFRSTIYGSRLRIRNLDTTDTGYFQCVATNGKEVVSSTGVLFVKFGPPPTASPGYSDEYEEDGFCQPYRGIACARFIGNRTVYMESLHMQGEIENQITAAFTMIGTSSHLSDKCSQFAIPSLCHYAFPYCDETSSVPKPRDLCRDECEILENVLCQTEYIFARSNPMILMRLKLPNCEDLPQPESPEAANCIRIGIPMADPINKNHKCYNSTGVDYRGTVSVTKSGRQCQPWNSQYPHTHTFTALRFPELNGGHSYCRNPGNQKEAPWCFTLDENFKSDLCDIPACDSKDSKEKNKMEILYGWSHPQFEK

The first assay has as its target T1, StrepII-tagged ROR1-extracellular domain (human, UniProt Q01973). In words: SPR (Biacore T200), IgG from HEK293T supernatant captured by anti-human Fc, ROR1-strep as analyte, 1:1 model. Here is the method:
For initial determination of huR12 clone affinities and parental R12 using transient HEK293T supernatants, IgG expression vectors were transiently transfected into 293T cells and IgG titers in supernatants were quantified by ELISA. For SPR, supernatants were diluted to 1 µg/ml IgG with running buffer (HBS-EP+pH 7.4 (10 mM HEPES, 150 mM NaCl, 3 mM EDTA, 0.05% Tween® 20)) and captured for 200s with a flow of 30 µl/min. ROR1-strep was diluted in running buffer using 2-fold serial dilutions ranging from 20 nM to 2.5 nM. Association was measured at a flow of 30 µl/min for 120s, and dissociation was followed for 1000s. Capture levels ranged from 26.9 RU to 54.1 RU.
As for B1, the Kd is 0.084 nM, the dissociation rate constant (koff) worked out at 9.65e-05 s⁻¹ and the kon was 1.15e+06 M⁻¹ s⁻¹.

As for B2, the Kd amounted to 0.092 nM, the dissociation rate constant (koff) came to 8.79e-05 s⁻¹ and the kon was 960000 M⁻¹ s⁻¹.

Take B3: the Kd was 0.091 nM, the koff amounted to 9.93e-05 s⁻¹ and the kon stood at 1.09e+06 M⁻¹ s⁻¹.

The molecule B4 yielded a dissociation constant (Kd) of 1.03 nM, a koff of 0.000361 s⁻¹ and a kon of 349000 M⁻¹ s⁻¹.

B5 gave a Kd of 0.11 nM, an off-rate constant (koff) of 0.000116 s⁻¹ and a kon of 1.05e+06 M⁻¹ s⁻¹.

For another assay, the target named is T1, StrepII-tagged ROR1-extracellular domain. In words: SPR (Biacore T200), purified mAb captured by anti-human Fc, ROR1-strep as analyte, 1:1 model.
Molecule B6 came in with a dissociation constant (Kd) of 6.1 nM, a koff of 0.00498 s⁻¹ and a kon of 821000 M⁻¹ s⁻¹.

On to B7, for which the Kd is 9 nM, the koff worked out at 0.0071 s⁻¹ and the kon was 785000 M⁻¹ s⁻¹.

Regarding B8, the affinity, expressed as Kd, was 14.2 nM; the koff was 0.0104 s⁻¹; the kon is 733000 M⁻¹ s⁻¹.

The molecule B9 displayed a Kd of 3.4 nM, a koff of 0.00328 s⁻¹ and a kon of 957000 M⁻¹ s⁻¹.

Molecule B10 displayed a Kd of 5.7 nM, a koff of 0.00968 s⁻¹ and a kon of 1.69e+06 M⁻¹ s⁻¹.

B11 displayed a Kd of 8 nM, a koff of 0.0138 s⁻¹ and a kon of 1.72e+06 M⁻¹ s⁻¹.

The molecule B12 returned a Kd of 9.9 nM, a koff of 0.0173 s⁻¹ and a kon of 1.75e+06 M⁻¹ s⁻¹.

For B13, the Kd worked out at 10.9 nM, the koff worked out at 0.0189 s⁻¹ and the kon came to 1.73e+06 M⁻¹ s⁻¹.
